Biological target: fluorescein-labeled FITC-casein
Assay: fluorescence polarisation

Kd: 560 nM
Substance: ClpB_(K-12) (from UniProt P63284 1-857) (enzyme)

Source: paper PMC7984374
